Measured values: paper PMC4632715

Molecular target: FN3 monobody 2C12 (binder of MAP2K5), purified FLAG-tagged protein
Assay: pull-down; 1 pmol each of four purified biotinylated targets spiked into HeLa cell lysate (10 µg), 10 pmol purified FLAG-tagged monobody, 2 h 4 °C; captured on anti-FLAG magnetic beads, RIPA washes; blot probed with streptavidin-IR dye

B1: mitogen-activated protein kinase kinase 5 (MAP2K5), amino acids 5-108 (domain or fragment)
chain: ALGPFPAMENQVLVIRIKIPNSGAVDWTVHSGPQLLFRDVLDVIGQVLPEATTTAFEYEDEDGDRITVRSDEEMKAMLSYYYSTVMEQQVNGQLIEPLQIFPRA
modifications: biotin (Avitag, in vivo); a non-biotinylated form served as soluble competitor
**Q.** Which percent of input pulled down does the source give for B1 here?
**A.** The percent of input pulled down was 33%.
